tested on: Escherichia coli TOP10; assay: shrunken log2 fold change of peptide-encoding DNA abundance (4.5 h post-induction vs induction); higher = less antimicrobial activity (less host growth inhibition); conditions: time post-induction: 4.5 h; library: site-saturation at positions 5, 18, 19, 20
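Note: peptides expressed intracellularly from a pBAD plasmid library in pooled LB shake-flask culture, induced with 0.3% L-arabinose, DNA abundance read by NGS, three biological replicates, DESeq2 with apeglm shrinkage.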

| Sequence | shrunken log2 fold change |
| --- | --- |
| RRIRHRPPRLPRPRPRPVDTPRP | -0.508 |
| RRIRQRPPRLPRPRPRPWRRPRP | 0.241 |
| RRIRCRPPRLPRPRPRPVDDPRP | 0.157 |
| RRIRNRPPRLPRPRPRPSGQPRP | -0.188 |
| RRIRRRPPRLPRPRPRPWVWPRP | 0.00495 |
| RRIRMRPPRLPRPRPRPPQIPRP | 0.468 |
| RRIRGRPPRLPRPRPRPWRPPRP | 0.376 |
| RRIRQRPPRLPRPRPRPETRPRP | -0.0113 |
| RRIRQRPPRLPRPRPRPSWNPRP | -0.238 |
| RRIRYRPPRLPRPRPRPSNVPRP | -1.01 |
| RRIRMRPPRLPRPRPRPQPTPRP | 0.868 |
| RRIRSRPPRLPRPRPRPGSEPRP | 0.593 |
| RRIRQRPPRLPRPRPRPIRIPRP | 0.0373 |
| RRIRMRPPRLPRPRPRPRRIPRP | 0.767 |
| RRIRARPPRLPRPRPRPLPCPRP | 0.13 |
| RRIRMRPPRLPRPRPRPMGFPRP | -0.0135 |
| RRIRTRPPRLPRPRPRPFKYPRP | -0.114 |
| RRIRVRPPRLPRPRPRPEAKPRP | 0.293 |
| RRIRHRPPRLPRPRPRPNHVPRP | -0.0341 |
| RRIRNRPPRLPRPRPRPKTAPRP | -0.232 |
| RRIRVRPPRLPRPRPRPYCGPRP | -0.502 |
| RRIRKRPPRLPRPRPRPFPEPRP | 0.273 |
| RRIRYRPPRLPRPRPRPGLHPRP | -0.265 |
| RRIRERPPRLPRPRPRPSYEPRP | -0.499 |
| RRIRYRPPRLPRPRPRPIRKPRP | -0.0667 |

| Sequence | shrunken log2 fold change |
| --- | --- |
| RRIRKRPPRLPRPRPRPKPNPRP | 0.516 |
| RRIRRRPPRLPRPRPRPIKSPRP | -0.254 |
| RRIRQRPPRLPRPRPRPIQDPRP | 0.0208 |
| RRIRLRPPRLPRPRPRPAWMPRP | -0.0208 |
| RRIRLRPPRLPRPRPRPGMAPRP | 0.145 |
| RRIRMRPPRLPRPRPRPPIYPRP | -0.0765 |
| RRIRCRPPRLPRPRPRPDFVPRP | -0.196 |
| RRIRHRPPRLPRPRPRPDYKPRP | 0.00107 |
| RRIRFRPPRLPRPRPRPHSLPRP | -0.169 |
| RRIRERPPRLPRPRPRPMLNPRP | -0.106 |
| RRIRDRPPRLPRPRPRPDLTPRP | 0.00118 |
| RRIRMRPPRLPRPRPRPCVNPRP | -0.111 |
| RRIRTRPPRLPRPRPRPEPRPRP | 0.482 |
| RRIRLRPPRLPRPRPRPNYFPRP | -0.121 |
| RRIRFRPPRLPRPRPRPAVRPRP | -0.0627 |
| RRIRNRPPRLPRPRPRPSKCPRP | -0.126 |
| RRIRGRPPRLPRPRPRPNQSPRP | 0.17 |
| RRIRKRPPRLPRPRPRPYIYPRP | -0.0483 |
| RRIRERPPRLPRPRPRPYVPPRP | -0.0961 |
| RRIRMRPPRLPRPRPRPNFTPRP | -0.099 |
| RRIRQRPPRLPRPRPRPFQNPRP | -0.179 |
| RRIRPRPPRLPRPRPRPQKPPRP | 0.163 |
| RRIRWRPPRLPRPRPRPSDYPRP | 0.0192 |
| RRIRLRPPRLPRPRPRPGTIPRP | -0.689 |
| RRIRNRPPRLPRPRPRPWGDPRP | -0.0233 |

| Sequence | shrunken log2 fold change |
| --- | --- |
| RRIRTRPPRLPRPRPRPQFAPRP | 0.0816 |
| RRIRVRPPRLPRPRPRPGCVPRP | 0.267 |
| RRIRFRPPRLPRPRPRPDWFPRP | -0.32 |
| RRIRYRPPRLPRPRPRPRCKPRP | -0.573 |
| RRIRKRPPRLPRPRPRPTNCPRP | 0.0303 |
| RRIRNRPPRLPRPRPRPFTVPRP | -0.00101 |
| RRIRQRPPRLPRPRPRPSFGPRP | 0.0622 |
| RRIRARPPRLPRPRPRPWLSPRP | 0.18 |
| RRIRFRPPRLPRPRPRPIGVPRP | -0.0194 |
| RRIRHRPPRLPRPRPRPICPPRP | -0.144 |
| RRIRQRPPRLPRPRPRPGAMPRP | 0.155 |
| RRIRPRPPRLPRPRPRPQPAPRP | 0.0892 |
| RRIRVRPPRLPRPRPRPYTLPRP | -0.666 |
| RRIRIRPPRLPRPRPRPFQYPRP | -0.0506 |
| RRIRCRPPRLPRPRPRPVRDPRP | 0.238 |
| RRIRPRPPRLPRPRPRPWLDPRP | 0.164 |
| RRIRARPPRLPRPRPRPSGSPRP | 0.216 |
| RRIRFRPPRLPRPRPRPKLKPRP | 0.0386 |
| RRIRGRPPRLPRPRPRPPKQPRP | 0.292 |
| RRIRFRPPRLPRPRPRPAFEPRP | 0.226 |
| RRIRYRPPRLPRPRPRPCMLPRP | -1.02 |
| RRIRGRPPRLPRPRPRPTVCPRP | 0.798 |
| RRIRERPPRLPRPRPRPAAYPRP | -0.0475 |
| RRIRLRPPRLPRPRPRPEIVPRP | 0.0118 |
| RRIRYRPPRLPRPRPRPDQSPRP | -0.0117 |
